The test system of this data set is K562 CRISPRi cells. The experiment in a line: Constant region variant library pooled growth screen, K562. The conditions noted are these: sgRNA constant region variants; activity relative to the original, un-modified constant region cr995. It counts as cell-based, human. In outline:
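Relative activity expresses each targeting sequence:constant region pair's phenotype over that of the unmodified constant region. Pooled growth screen ran in K562 CRISPRi cells in duplicate spinner-flask replicates, with puromycin selection and 4–8 days' growth at >2000× coverage; library paired variants with 36 targeting sequences.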

B1: cr419 (nucleic acid)
guide: GTTTAAGAGCTAAGCTGGAAACAGCATAGCAACTTTAAATAAGGCTAGTCCGTTATCAACTTGAAAAAGTGGAACCGAGTCGGTTCT
modifications: listed as DNA, chemistry not fully specified
The molecule B1 came in with a Mean relative activity of 0.05682.

B2: cr045 (nucleic acid)
guide: TTTTATGAGCTAAGCTGGAAACAGCATAGCAAGTTTAAATAAGGCTAGTCCGTTATCAACTTGAAAAAGTGGCACCGAGTCGGTGCT
modifications: listed as DNA, chemistry not fully specified
On to B2, for which the Mean relative activity came out at 0.04839.

B3: cr681 (nucleic acid)
guide: GTTTAAGAGCTAAGCTGGAAACAGCATAGCAAGTTTAAATAAGGCTACTCCGTTATTAACTTGAAAAAGTGGCACCGAGTCGGTGCT
modifications: listed as DNA, chemistry not fully specified
Consider B3, for which the Mean relative activity is reported as 0.03559.

B4: cr138 (nucleic acid)
guide: GTTTAAGAGCTAAGCTGGAAACAGCATAGCAAGCTTAAATAAGGCTAGTCCGTTATCAACTTGAAAAAGTGGCACGGAGTCCGTGCT
modifications: listed as DNA, chemistry not fully specified
As for B4, the Mean relative activity is recorded as 0.04307.

B5: cr677 (nucleic acid)
guide: GTTTAAGAGCTAAGCTGGAAACAGCATAGCAAGTTTAAATTAGGCTAGTCCGTTATCAACTTGAAAAAGTGGCACCGAGTCGGTGCT
modifications: listed as DNA, chemistry not fully specified
In turn, B5 came in with a Mean relative activity of 0.04623.

B6: cr708 (nucleic acid)
guide: GTTTAAGAGCTAAGCTGGAAACAGCATAGCAAGTTTAAATAATGCTAGTCAGTTATCAACTTGAAAAAGTGGCACCGAGTCGGTGCT
modifications: listed as DNA, chemistry not fully specified
In the case of B6, the Mean relative activity is 0.0394.

B7: cr465 (nucleic acid)
guide: GTTTAAGAGCTAAGCTGGAAACAGCATAGCAAGCTTAAATAAGGATATTCCGTTATCAACTTGAAAAAGTGGCACCGAGTCGGTGCT
modifications: listed as DNA, chemistry not fully specified
As for B7, the Mean relative activity turned out to be 0.04864.

B8: cr107 (nucleic acid)
guide: GTTTAAGAGCTAAGCTGGAAACAGCATAGCAAGTTTAAATAATGCTAGTCAGTTATCAACTTGAAAAAGTGGCAACGAGTCGTTGCT
modifications: listed as DNA, chemistry not fully specified
Take B8: the Mean relative activity is given as 0.03837.

B9: cr208 (nucleic acid)
guide: GTTTAAGAGCTAAGCTGGAAACAGCATAGCAAGTTTAAATAAGGCTAGTCCTTCATCAACTTGAAGAAGTGGCACCGAGTCGGTGCT
modifications: listed as DNA, chemistry not fully specified
As to B9, the Mean relative activity amounted to 0.03711.

B10: cr188 (nucleic acid)
guide: GTTTAAGAGCTAAGCTGGAAACAGCATAGCAAGTTTAAATAATGCTAGTCAGTTATCAACCTGAAAAGGTGGCACCGAGTCGGTGCT
modifications: listed as DNA, chemistry not fully specified
B10: the Mean relative activity is on record as 0.04409.

B11: cr211 (nucleic acid)
guide: GTTTAAGAGCTAAGCTGGAAACAGCATAGCAAGTTTAAATAAGTCTAGTCCGTTATCAACTTGAAAAAGTGGCACCGAGTCGGTGCT
modifications: listed as DNA, chemistry not fully specified
Regarding B11, the Mean relative activity is 0.04075.

B12: cr764 (nucleic acid)
guide: GTTTAAGAGCTAAGCTGGAAACAGCATAGCAACTTTAAATAAGGCTAGTCCGTTATCAACTTGAAAAAGTGGCACCGAGTCGGTGCT
modifications: listed as DNA, chemistry not fully specified
In turn, B12 registered a Mean relative activity of 0.04863.

B13: cr115 (nucleic acid)
guide: GTTTAAGAGCTAAGCTGGAAACAGCATAGCAAGTTTAAATAATGCTAGTCAGTTATCAACTCGAAAGAGTGGCACCGAGTCGGTGCT
modifications: listed as DNA, chemistry not fully specified
In the case of B13, the Mean relative activity was 0.05506.

B14: cr498 (nucleic acid)
guide: GTTTAAGAGCTAAGCTGGAAACAGCATAGCAAGTTTAATTAAGGCTAGTCCGTTATCAACTTGAAAAAGTGGCACCGAGTCGGTGCT
modifications: listed as DNA, chemistry not fully specified
Molecule B14 had a Mean relative activity of 0.03563.

B15: cr422 (nucleic acid)
guide: GTTTAAGAGCTAAGCTGGAAACAGCATAGCAAGTTTAAATAAGGCTAGTCCGTTATCAACTTGAAAAAGTGGTACCGAGTCGTTCCT
modifications: listed as DNA, chemistry not fully specified
B15 showed a Mean relative activity of 0.0493.

B16: cr335 (nucleic acid)
guide: GTTTAAGAGCTAAGCTGGAAACAGCATAGCAAGTTTAAATAAGGCTAGTCCGTTATCAACTTGAAAAAGTGACGCCGAGTCGGCGTT
modifications: listed as DNA, chemistry not fully specified
For B16, the Mean relative activity is listed as 1.036.

B17: cr222 (nucleic acid)
guide: GTTTAAGAGCTAAGCTGGAAACAGCATAGCAAGGTTAAATAAGGCTAGTCCGTTATCAGCTTGAAAAAGCGGCACCGAGTCGGTGCT
modifications: listed as DNA, chemistry not fully specified
B17 gave a Mean relative activity of 0.03915.

B18: cr625 (nucleic acid)
guide: GTTTAAGAGCTAAGCTGGAAACAGCATAGCAAGCTTAAATAAGGCTAGTCCGTTATCAACTTGAAAAAGTGGCACCTAGTAGGTGCT
modifications: listed as DNA, chemistry not fully specified
On to B18, for which the Mean relative activity worked out at 0.04332.

B19: cr928 (nucleic acid)
guide: GTTTAAGAGCTAAGCTGGAAACAGCATAGCTAGTTTAAATGAGGCTAGTCCGTAATCAACTTGAAAAAGTGGCACCGAGTCGGTGCT
modifications: listed as DNA, chemistry not fully specified
B19: the Mean relative activity stood at 0.05583.

B20: cr776 (nucleic acid)
guide: GTTTAAGAGCTAAGCTGGAAACAGCATAGCAAGTTTAAATAAGGCTAGTCCGTTATCATCTAGAAATAGAGGCACCGAGTCGGTGCT
modifications: listed as DNA, chemistry not fully specified
Consider B20, for which the Mean relative activity is reported as 1.037.

B21: cr050 (nucleic acid)
guide: CTTTAGGAGCTAAGCTGGAAACAGCATAGCAAGTTTAAATAAGGCTAGTCCGTTATCAACTTGAAAAAGTGGCACCGAGTCGGTGCT
modifications: listed as DNA, chemistry not fully specified
In the case of B21, the Mean relative activity is 0.04785.

B22: cr767 (nucleic acid)
guide: GTTTAAGAGCTAAGCTGGAAACAGCATAGCAAGATTAAATAAGGCTAGTCCGTTATCAACTTGAAAAAGTGGCACCGTGTCGGTGCT
modifications: listed as DNA, chemistry not fully specified
Consider B22, for which the Mean relative activity worked out at 0.0381.

The values above are taken from patent publication US20220259593A1, “CONTROL OF MAMMALIAN GENE DOSAGE USING CRISPR” (The Regents of the University of California, priority 2019, published 2022).
